Like-named read-outs stand apart in the source and are kept apart here.
T1: ANG2 (UniProt O15123 68-496, limits assumed)
T1 sequence (looked up): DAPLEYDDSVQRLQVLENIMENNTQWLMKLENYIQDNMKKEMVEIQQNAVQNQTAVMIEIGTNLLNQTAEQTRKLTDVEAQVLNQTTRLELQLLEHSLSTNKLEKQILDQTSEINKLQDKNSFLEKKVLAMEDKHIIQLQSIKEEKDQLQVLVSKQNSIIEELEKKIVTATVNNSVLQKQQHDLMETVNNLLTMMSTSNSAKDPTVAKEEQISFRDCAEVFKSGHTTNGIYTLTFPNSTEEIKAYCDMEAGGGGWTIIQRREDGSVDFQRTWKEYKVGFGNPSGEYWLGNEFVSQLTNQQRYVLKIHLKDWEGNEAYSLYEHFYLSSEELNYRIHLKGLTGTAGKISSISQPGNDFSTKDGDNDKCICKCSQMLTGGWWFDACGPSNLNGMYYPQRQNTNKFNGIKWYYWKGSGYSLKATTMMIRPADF

T2: human ANG2-RBD-mouse Fc-region fusion (human, UniProt O15123 275-496, limits assumed)
T2 construct: domain: RBD; also called human ANG2-RBD-murine Fc-region fusion; not shown: mouse Fc-region
T2 sequence (looked up): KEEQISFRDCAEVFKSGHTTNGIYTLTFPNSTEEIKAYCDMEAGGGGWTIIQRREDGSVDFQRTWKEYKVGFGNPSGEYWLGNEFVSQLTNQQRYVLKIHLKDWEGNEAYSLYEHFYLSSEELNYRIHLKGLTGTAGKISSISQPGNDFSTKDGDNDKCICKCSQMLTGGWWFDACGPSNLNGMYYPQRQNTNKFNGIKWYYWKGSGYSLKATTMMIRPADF


Experiments:
human IL-1beta [1] = target: T3, human IL-1beta (human, UniProt P01584 117-269); experiment: SPR (BIAcore); antibody captured by anti-Fc, IL-1beta injected
Description: (§1) All experiments were performed at 25° C. using HBS-P (10 mM His, 140 mM NaCl, 0.05% Tween 20 pH 7.4) as running and dilution buffer. Anti-human or anti-mouse Fc antibodies were immobilized on a Series S CM5 Sensor Chip (GE Healthcare) using standard amine coupling chemistry. […] The dissociation phase was monitored for 600 sec by washing with running buffer. […] The surface was regenerated by injecting 3 M MgCl2 (for anti-human Fc antibody) or 10 mM Glycine pH 1.5 (for anti-mouse Fc antibody) for 60 sec at a flow rate of 5 μl/min. Bulk refractive index differences were corrected by subtracting the response obtained from a mock surface. Blank injections were subtracted (double referencing). The derived curves were fitted to a 1:1 Langmuir binding model using the BIAevaluation software.

cynomolgus IL-1beta = cynomolgus IL-1beta (cynomolgus, UniProt P79182 117-268); experiment: as above
Description: as §1

human IL-1beta [2] = target: T3, human IL-1beta; experiment: cell-based or functional assay
human IL-1beta [3] = target: T3, human IL-1beta; experiment: cell-based or functional assay; remark: listed apart in the source
human IL-1beta [4] = target: T3, human IL-1beta; experiment: SPR inhibition; 10 nM human IL-1beta pre-incubated with antibody, injected over immobilised human IL-1RI (competitor)
Description: All experiments were performed at 25° C. using HBS-P (10 mM His, 140 mM NaCl, 0.05% Tween 20 pH 7.4) as running and dilution buffer. Human IL-1RI was immobilized on a Series S CM5 Sensor Chip (GE Healthcare) using standard amine coupling chemistry. […] The surface was regenerated by injecting 10 mM NaOH for 60 sec at a flow rate of 5 μl/min. Bulk refractive index differences were corrected by subtracting the response obtained from a mock surface.

human IL-1beta [5] = target: T3, human IL-1beta; experiment: cell-based or functional assay; remark: listed apart in the source
human IL-1beta [6] = target: T3, human IL-1beta; experiment: cell-based or functional assay; remark: listed apart in the source
human IL-1beta [7] = target: T3, human IL-1beta; experiment: cell-based or functional assay; remark: listed apart in the source
ANG2 = target: T1, ANG2; experiment: cell-based or functional assay
[8] = target: T2, human ANG2-RBD-mouse Fc-region fusion; experiment: SPR (BIAcore T200); ANG2-RBD-mouse Fc captured, antibody injected (Example 52)
Description: Binding of the bispecific antibody to human ANG2-RBD-mouse Fc-region fusion was investigated by surface plasmon resonance using a BIACORE T200 instrument (GE Healthcare). […] HBS-N (10 mM HEPES, 150 mM NaCl pH 7.4, GE Healthcare) was used as running buffer during the immobilization procedure. For the following kinetic characterization, sample and running buffer was HBS-P (10 mM HEPES, 150 mM NaCl pH 7.4, 0.05% Surfactant P20; GE Healthcare). The flow cell was set to 25° C.—and the sample block set to 12° C.—and primed with running buffer twice prior to kinetic characterization.

human IL-1beta [9] = target: T3, human IL-1beta; experiment: cell-based or functional assay; remark: listed apart in the source
human IL-1beta [10] = target: T3, human IL-1beta; experiment: SPR (BIAcore T200); antibody captured by anti-human Fc, human IL-1beta injected (Example 52); parameters: t 1/2: unit not given here
human PDGF-BB [11] = target: T4, human PDGF-BB (human, UniProt P01127 82-190); experiment: SPR; apparent KD** of the IgG
T4 construct: also called huPDGF-BB

cynomolgus PDGF-BB [12] = target: T5, cynomolgus PDGF-BB (cynomolgus, UniProt A0A2K5UX81 82-190); experiment: SPR (BIAcore B4000); PDGF-BB coupled on C1 chip, antibody injected; apparent KD (avidity)
T5 construct: also called cynPDGF-BB
Description: (§2) The binding analysis was carried out using a surface plasmon resonance spectroscopy-based technology applying a BIAcore B4000 system (GE Healthcare). […] Utilizing a read out time of 180 sec. association phase and 600 sec. dissociation phase the apparent kₐ and apparent kd were calculated. The apparent KD (avidity) was calculated using the BlAcore T200 v2.0 fitting software.

human PDGF-BB [13] = target: T4, human PDGF-BB; experiment: as above
Description: as §2

human PDGF-BB [14] = target: T4, human PDGF-BB; experiment: cell-based or functional assay
human PDGF-BB [15] = target: T4, human PDGF-BB; experiment: SPR (BIAcore T200) kinetic screening; PDGF-BB coupled on C1 chip, antibody injected
human PDGF-BB [16] = target: T4, human PDGF-BB; experiment: cell-based or functional assay; remark: listed apart in the source
rat PDGF-BB = rat PDGF-BB (rat, UniProt Q05028 74-182); experiment: ELISA, antigen coated
Description: (§3) The binding analysis was carried out using an enzyme-linked immunosorbent assay (ELISA)-based technology. […] The EC₅₀ was calculated with a four parameter logistic model using GraphPad Prism 6.0 software.

cynomolgus PDGF-BB [17] = target: T5, cynomolgus PDGF-BB; experiment: ELISA, antigen coated
Description: as §3

murine PDGF-BB = target: T6, murine PDGF-BB (murine, UniProt P31240 82-190); experiment: ELISA, antigen coated
T6 construct: also called muPDGF-BB
Description: as §3

human PDGF-BB [18] = target: T4, human PDGF-BB; experiment: ELISA, antigen coated
Description: as §3

human PDGF-BB [19] = target: T4, human PDGF-BB; experiment: competition ELISA; biotinylated human PDGF-BB with antibody on coated Fc-tagged PDGF-BB receptor (competitor)
Description: The IC₅₀ was calculated with a four parameter logistic model using GraphPad Prism 6.0 software.

cynomolgus PDGF-BB [20] = target: T5, cynomolgus PDGF-BB; experiment: SPR (BIAcore B4000); PDGF-BB coupled on C1 chip, antibody injected; apparent value
Description: as §2

human PDGF-BB [21] = target: T4, human PDGF-BB; experiment: as above
Description: as §2

human PDGF-BB [22] = target: T4, human PDGF-BB; experiment: SPR; IgG
human PDGF-BB [23] = target: T4, human PDGF-BB; experiment: SPR (BIAcore T200); PDGF-BB coupled on CM3 chip, antibody injected (Example 52); parameters: t½: unit not given here
human PDGF-BB [24] = target: T4, human PDGF-BB; experiment: SPR; apparent KD* of the Fab
human PDGF-BB [25] = target: T4, human PDGF-BB; experiment: SPR (BIAcore T200); PDGF-BB coupled on CM3 chip, Fab injected
human PDGF-BB [26] = target: T4, human PDGF-BB; experiment: SPR; Fab

T4 sequence (P01127 82-190 limits assumed): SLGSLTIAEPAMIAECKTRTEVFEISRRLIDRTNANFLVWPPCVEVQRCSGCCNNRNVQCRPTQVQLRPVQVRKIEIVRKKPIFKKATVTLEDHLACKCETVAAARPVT
T5 sequence (A0A2K5UX81 entry or part of it): as the sequence (P01127 82-190 limits assumed) above, with I7V counted along it
T6 sequence (P31240 82-190 limits assumed): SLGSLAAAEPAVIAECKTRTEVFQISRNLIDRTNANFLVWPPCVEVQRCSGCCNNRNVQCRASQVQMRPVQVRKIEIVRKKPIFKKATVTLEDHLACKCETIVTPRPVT
rat PDGF-BB, sequence (Q05028 74-182 limits assumed): as the sequence (P31240 82-190 limits assumed) above, with I83V, I102V counted along it

Row | Binder | EC50, reduction of IL-6 expression upon IL-1beta stimulation of A549 cells (human IL-1beta [7]) [µg/mL] | Kd (human PDGF-BB [11]) [nM] | Kd (cynomolgus PDGF-BB [12]) [nM] | Kd (human PDGF-BB [13]) [nM] | IC50 Proliferation 3T3 (human PDGF-BB [14]) [µg/mL] | koff (human PDGF-BB [15]) [s⁻¹] | t½ (human PDGF-BB [15]) [min] | Balb-C3T3 Proliferation, IC50 (human PDGF-BB [16]) [nM] | Pericytes Migration, IC50 (human PDGF-BB [16]) [nM] | Pericytes Proliferation, IC50 (human PDGF-BB [16]) [nM] | EC50 (rat PDGF-BB) [µg/mL] | EC50 (cynomolgus PDGF-BB [17]) [µg/mL] | EC50 (murine PDGF-BB) [µg/mL] | EC50 (human PDGF-BB [18]) [µg/mL] | IC50 (human PDGF-BB [19]) [µg/mL] | koff (cynomolgus PDGF-BB [20]) [s⁻¹] | kon (cynomolgus PDGF-BB [20]) [M⁻¹ s⁻¹] | koff (human PDGF-BB [21]) [s⁻¹] | kon (human PDGF-BB [21]) [M⁻¹ s⁻¹] | T½ (human PDGF-BB [22]) [min] | further results
1 | Canakinumab (antibody, V domains shown) VH: QVQLVESGGGVVQPGRSLRLSCAASGFTFSVYGMNWVRQAPGKGLEWVAIIWYDGDNQYYADSVKGRFTISRDNSKNTLYLQMNGLRAEDTAVYYCARDLRTGPFDYWGQGTLVTVSS VL: EIVLTQSPDFQSVTPKEKVTITCRASQSIGSSLHWYQQKPDQSPKLLIKYASQSFSGVPSRFSGSGSGTDFTLTINSLEAEDAAAYYCHQSSSLPFTFGPGTKVDIKR | 0.0864 |  |  |  |  |  |  |  |  |  |  |  |  |  |  |  |  |  |  |  | Kd (human IL-1beta [1]): 0.02 nM; koff (human IL-1beta [1]): 5.2e-05 s⁻¹; kon (human IL-1beta [1]): 2.78e+06 M⁻¹ s⁻¹; Kd (cynomolgus IL-1beta): 13.2 nM; koff (cynomolgus IL-1beta): 0.0284 s⁻¹; kon (cynomolgus IL-1beta): 2.15e+06 M⁻¹ s⁻¹; EC50, reduction of IL-6 expression upon IL-1beta stimulation of A549 cells (human IL-1beta [2]): 0.12 nM; IC50, inhibition of ICAM-1 expression upon IL-1beta stimulation of HUVEC cells (human IL-1beta [3]): 9.02 nM; IC50 (human IL-1beta [4]): 1.6 nM; IC50, inhibition of ICAM-1 expression upon IL-1beta stimulation of A549 cells (human IL-1beta [5]): 0.31 nM; IC50, inhibition of proliferation of D10 cells (human IL-1beta [6]): 1.99 nM
2 | antibody 0031 (bispecific antibody, V domains shown, CrossMab; also called anti-IL-1beta/ANG2 antibody; bispecific anti-ANG2/IL-1beta antibody) VH 1: QVQLVQSGAEVKKPGASVKVSCKASGYTFTGYYMHWVRQAPGQGLEWIGYISSYNAFTTYNQKFRGRATFTVDTSISTAYMELSRLRSDDTAVYYCVRSDYYGTSLYWGQGTLVTVSS VL 1: EIVLTQSPATLSLSPGERATLSCRASSSVSYMHWSQQKPGQAPRLLIYSTSNLASGIPARFSGSGSGTDFTLTISSLEPEDFAVYYCHQWSNYYTFGQGTKLEIK VH 2: not shown VL 2: SYVLTQPPSVSVAPGQTARITCGGNNIGSKSVHWYQQKPGQAPVLVVYDTSDRPSGIPERFSGSNSGNTATLTISRVEAGDEADYYCQVWDSSSDHWVFGGGTKLTVLSS | 0.017 |  |  |  |  |  |  |  |  |  |  |  |  |  |  |  |  |  |  |  | ANG2 specific pTie2-ELISA, activity against the anti-ANG2/VEGF antibody reported in WO 2014/09465 (ANG2): 6 fold; Kd [8]: 8 nM; koff [8]: 0.00115 s⁻¹; kon [8]: 145000 M⁻¹ s⁻¹; t½ [8]: 10.1 min; IC50, inhibition of ICAM-1 expression upon IL-1beta stimulation of A549 cells (human IL-1beta [9]): 0.104 µg/mL; Kd (human IL-1beta [10]): 0.12 nM; koff (human IL-1beta [10]): 0.000302 s⁻¹; kon (human IL-1beta [10]): 2.56e+06 M⁻¹ s⁻¹; t 1/2 (human IL-1beta [10]): 38
3 | antibody 0085 (antibody, V domains shown, Human antibody from a human Ig locus transgenic rabbit) VH: EVQLVESGGGLVQPGGSLRLSCAASGFTFSSYWMSWVRQAPEKGLEWVSTISDGGGLTYYADSVKGRFTISRDNAKNSLYLQMNSLRAEDTAVYYCAESGGYTDWLFGYWGQGTLVTVSS VL: not shown |  | 0.023 | 0.0478 | 0.0476 | 0.0318 | 0.000102 | 114 | 0.06 | 0.15 | 0.11 | 0.016 | 0.0153 | 0.025 | 0.00755 | 0.0178 | 4.52e-05 | 940000 | 4.4e-05 | 930000 | 146 | 
4 | antibody 0106 (Fab, V domains shown) VH: EVQLVESGGGLVQPGGSLRLSCAASGFTFSSYWMSWVRQAPEKGLEWVSTISDGGGLTYYADSVKGRFTISRDNAKNSLYLQMNSLRAEDTAVYYCAESGGYTDWLFGYWGQGTLVTVSS VL: not shown |  |  |  |  |  |  |  |  |  |  |  |  |  |  |  |  |  |  |  |  | Kd (human PDGF-BB [23]): 1 nM; koff (human PDGF-BB [23]): 0.000291 s⁻¹; kon (human PDGF-BB [23]): 294000 M⁻¹ s⁻¹; t½ (human PDGF-BB [23]): 40; Kd (human PDGF-BB [24]): 2 nM; Kd (human PDGF-BB [25]): 2 nM; koff (human PDGF-BB [25]): 0.000374 s⁻¹; kon (human PDGF-BB [25]): 202000 M⁻¹ s⁻¹; t½ (human PDGF-BB [25]): 30.9 min; T½ (human PDGF-BB [26]): 30.9 min
5 | antibody 0107 (Fab, V domains shown) VH: EVQLVESGGGLVQPGGSLRLSCAASGFTFSSYWMSWVRQAPEKGLEWVSTISDGGGLTYYADSVKGRFTISRDNAKNSLYLQMNSLRAEDTAVYYCAESGGYTDWLFGYWGQGTLVTVSS VL: not shown |  |  |  |  |  |  |  |  |  |  |  |  |  |  |  |  |  |  |  |  | Kd (human PDGF-BB [24]): 2 nM; Kd (human PDGF-BB [25]): 2 nM; koff (human PDGF-BB [25]): 0.000362 s⁻¹; kon (human PDGF-BB [25]): 195000 M⁻¹ s⁻¹; t½ (human PDGF-BB [25]): 31.9 min; T½ (human PDGF-BB [26]): 31.9 min
6 | antibody 0086 (antibody, V domains shown, Human antibody from a human Ig locus transgenic rabbit) VH: EVQLVESGGGLVQPGGSLRLSCAASGFTFSSYWMSWVRQAPEKGLEWVSTISDGGGLTYYADSVKGRFTISRDNAKNSLYLQMNSLRAEDTAVYYCAESGGYTDWLFGYWGQGTLVTVSS VL: not shown |  | 0.03 | 0.0178 | 0.0218 | 0.056 | 7.93e-05 | 146 | 0.11 | 0.09 | 0.09 | 0.0106 | 0.0162 | 0.0141 | 0.012 | 0.0117 | 1.84e-05 | 1.04e+06 | 2.3e-05 | 1.04e+06 | 41 | 
